Test results as given in patent publication US20070020327A1.

The binders below were run against HLA-A*1101 (human) (assay: competition with 125I-labelled standard peptide on purified HLA-A*1101, gel filtration). Details: not given.

Row | binding affinity ratio (IC50 of standard peptide / IC50 of test peptide) | Binder
1 | 0.0002 | LVFRHGDR (modifications not checked) [PAP peptide LVFRHGDR (position 40, 8 amino acids)]

These binders were tested against HLA-A*0203 (human) (assay: competition with 125I standard peptide for purified HLA; gel filtration). Details: remark: other sources report otherwise.

Row | IC50 [nM] | Binder
2 | 3.2 | GLHGQDLFGV (modifications not checked) [Peptide 1419.62 … (PAP.196.V10)]
3 | 278 | HLLSNDMCV (modifications not checked) [Peptide 1418.20 … (HuK2.177.V9)]

The binders below were run against HLA-A*0202 (human) in the same assay as above. Details: remark: other sources report otherwise.

Row | IC50 [nM] | Binder
4 | 102 | HLLSNDMCV (modifications not checked) [Peptide 1418.20 … (HuK2.177.V9)]

The binders below were run against HLA-B*0702 (human) (assay: competition with 125I-labelled standard peptide on purified HLA-B*0702, gel filtration; standard 1075.23 [..], […]). Details: not given.

Row | binding affinity ratio (IC50 of standard peptide / IC50 of test peptide) | Binder
5 | 0.02 | TPKHNMKAFL (modifications not checked) [… (PSM, position 53, 10 amino acids)]
6 | 0.0001 | PPPPGYENV (modifications not checked) [… (PSM, position 146, 9 amino acids)]
7 | 0.0006 | TPKKLQCVDL (modifications not checked) [… (PSA, position 163, 10 amino acids)]
8 | 0.0002 | SPSCPLERFA (modifications not checked) [… (PSA as printed, position 348, 10 amino acids)]
9 | 0.0002 | SPQGMPEGDL (modifications not checked) [… (PSM, position 165, 10 amino acids)]
10 | 0.0001 | TPGYPANEYA (modifications not checked) [… (PSM, position 269, 10 amino acids)]
11 | 0.0001 | PPGYENVSDI (modifications not checked) [… (PSM, position 148, 10 amino acids)]
12 | 0.002 | SPEFSGMPRI (modifications not checked) [… (PSM, position 503, 10 amino acids)]

Each binder was assayed against HLA-A*0301 (human) (assay: competition with 125I-labelled standard peptide 941.12 for purified HLA, gel filtration). Details: scale: ratio.

Row | binding affinity ratio | Binder
13 | 0.0003 | DMSLLKNR (modifications not checked) [PSA 98 DMSLLKNR]
14 | 0.0001 | DTFPTDPIK (modifications not checked) [PAP 51 …]
15 | 0.0003 | DIESKVDPSK (modifications not checked) [PSM 714 …]
16 | 0.004 | CSPSCPLER (modifications not checked) [PAP 347 …]
17 | 0.0006 | DALFDIESK (modifications not checked) [PSM 710 …]

What follows are binders tested against HLA-A*0203 (human) (assay: competition with 125I-labelled standard peptide 941.01 for purified HLA, gel filtration). Details: scale: ratio.

Row | binding affinity ratio | Binder
18 | -0.0001 | GLPTQEPA (modifications not checked) [Kallikrein (hK2) peptide GLPTQEPA (position 140)]
19 | -0.0001 | VVHYRKWI (modifications not checked) [VVHYRKWI (PSA, position 242, 8 amino acids)]
20 | -0.0001 | VVHYRKWI (modifications not checked) [VVHYRKWI (Kallikrein, position 246, 8 amino acids)]

The binders below were run against HLA-A*0202 (human) in the same assay as above. Details: scale: ratio.

Row | binding affinity ratio | Binder
21 | 0.0003 | GLPTQEPA (modifications not checked) [Kallikrein (hK2) peptide GLPTQEPA (position 140)]

Each binder was assayed against HLA-A*0206 (human) in the same assay as above. Details: scale: ratio.

Row | binding affinity ratio | Binder
22 | -0.0001 | GLPTQEPA (modifications not checked) [Kallikrein (hK2) peptide GLPTQEPA (position 140)]
23 | 0.0001 | VVHYRKWI (modifications not checked) [VVHYRKWI (PSA, position 242, 8 amino acids)]
24 | 0.0001 | VVHYRKWI (modifications not checked) [VVHYRKWI (Kallikrein, position 246, 8 amino acids)]

Each binder was assayed against HLA-A*0201 (human) in the same assay as above. Details: scale: ratio.

Row | binding affinity ratio | Binder
25 | -0.0001 | GLPTQEPA (modifications not checked) [Kallikrein (hK2) peptide GLPTQEPA (position 140)]
26 | 0.0001 | VVHYRKWI (modifications not checked) [VVHYRKWI (PSA, position 242, 8 amino acids)]
27 | 0.0001 | VVHYRKWI (modifications not checked) [VVHYRKWI (Kallikrein, position 246, 8 amino acids)]

What follows are binders tested against HLA-A*6802 (human) (assay: competition with 125I-labelled standard peptide 1072.34 for purified HLA, gel filtration). Details: scale: ratio.

Row | binding affinity ratio | Binder
28 | -0.0001 | GLPTQEPA (modifications not checked) [Kallikrein (hK2) peptide GLPTQEPA (position 140)]
29 | -0.0001 | VVHYRKWI (modifications not checked) [VVHYRKWI (PSA, position 242, 8 amino acids)]
30 | -0.0001 | VVHYRKWI (modifications not checked) [VVHYRKWI (Kallikrein, position 246, 8 amino acids)]

These binders were tested against HLA-A*1101 (human) (assay: competition with 125I-labelled standard peptide 940.06 for purified HLA, gel filtration). Details: scale: ratio.

Row | binding affinity ratio | Binder
31 | 0.0001 | DMSLLKNR (modifications not checked) [PSA 98 DMSLLKNR]
32 | 0.0001 | DTFPTDPIK (modifications not checked) [PAP 51 …]
33 | 0.0002 | DIESKVDPSK (modifications not checked) [PSM 714 …]
34 | 0.0006 | CSPSCPLER (modifications not checked) [PAP 347 …]
35 | 0.0002 | DALFDIESK (modifications not checked) [PSM 710 …]
